# Patent US20260234236A1 (INTERVET, published 2026)
# T1: Canine IL-4 with C-terminal Avi-HIS tag (canine, biotin label when loaded on SA biosensors (Example 4); site not stated)
# T1 construct: also called cIL-4; biotinylated avitag-cIL-4
# T1 chain: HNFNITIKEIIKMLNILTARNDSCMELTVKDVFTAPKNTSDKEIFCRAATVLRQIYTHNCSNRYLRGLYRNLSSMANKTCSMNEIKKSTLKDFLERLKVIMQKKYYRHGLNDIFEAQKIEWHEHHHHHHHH
# T2: Canine IL-13 with C-terminal Avi-HIS tag (canine, biotin label when loaded on SA biosensors (Example 4); site not stated)
# T2 construct: also called cIL-13; biotinylated avitag-cIL13
# T2 chain: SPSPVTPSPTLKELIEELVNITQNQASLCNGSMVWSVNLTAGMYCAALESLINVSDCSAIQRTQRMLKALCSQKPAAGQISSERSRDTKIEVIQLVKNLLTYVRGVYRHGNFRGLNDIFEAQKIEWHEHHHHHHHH
# B1: IL4 P4A-1 E10 scFv (scFv)
# scFv: QSVLNQPPSVSAALGQRVTVSCTGTDTNIGSGYDVQWYQQVPGKSPTPIIYGNTNRPSGVPERFSGSKSGNTATLTITGIQAEDEADYYCQSFDDNVDGYVFGSGTQLTILGGGSSRSSSSGGGGSGGGGEVPLVESGGDLVKPGGSLRLSCVASGFTFSDYHMSWVRQAPGKGLQWVADISSSGSTYYADAVKGRFTISRDNAKNTLYLQMNSLRAEDTAVYYCARQWGEFDYWGQGTLVTVSSESPSPPNLTSGQAGQ
# notes: scFv purified from E. coli periplasm on Ni-NTA
# B2: IL4 P3-1 D7 scFv (scFv)
# scFv: QSMLTQPASVSGSLGQRVAISCSGSTNNIGIFGATWYQHLPGKAPKFLLYSDGNRPSGVPDRFSGSDSGNSVTLMITALQAEDEADYYCQSFDTTLGAYVFGSGTQLTILGGGSSRSSSSGGGGSGGGGEVQLVQSGGDLVKPGGSLRLSCVASGFAFNGYDMDWVRLAPGKGLQWLSEISSSGSPTYYADAVEGRFTISRDNAKNTLYLQMDSLRAEDTAVYYCARAGEYTYGYEGYYFDYWGQGTLVTVSSASTTAPSVTSGQAGQ
# notes: as for B1
# B3: IL4 P3-1 B9 scFv (scFv)
# scFv: QAVLTQPASVSAALGQRVTISCTGTATNVGGGYDVQWYQQFPGRPPKTIIYGNYNRPSGVPDRFSASTSGTTATLTITGIQVADEADYYCQSFDTTFNGHVFGAGTQLTILGGGSSRSSSSGGGGSGGGGELQLVELGGDLVKPGGSLRLSCVASGFTFSSYGMSWVRQSPGKGLQWVADISSSGSTYYADAVKGRFTISRDNAKSTLYLQMNSLRAEDTAVYYCAKAGYGSYYDFGMDYWGHGTSVFVSSESPSPPNLTSGQAGQ
# notes: as for B1
# B4: IL4 P4A-2 D11 scFv (scFv)
# scFv: QAVLTQPPSVSAALGQRVTISCSGSTDNVGTVGASWYQHLPGRAPKLLVYIVGDRPSGVPDRFSGSKSGTSATLTITGLQAEDEADYYCSSWDDSLRGIVFGGGTHLTVLGGGSSRSSSSGGGGSGGGGEEQLVEFGGDLVKPGESLRLSCVASGFTFNKYDMSWVRQAPGKGLQWVATVADDESFAYYTDSVKGRFTISRDNAKNTLYLQMNSLRAEDTAMYYCVGKTGSYWDIDFDLWGPGTLVTISSASTTAPSVTSGQAGQ
# notes: as for B1
# B5: IL4 P4A-2 G11 scFv (scFv)
# scFv: DIVMTQTPLSLSVSPGEPASISCKASQSLLYSDGNTYLYWFRQKPGQSPQRLISLVSNRDAGVPDRFSGSGSGTDFTLRISRVEADDAGVYYCGQGIQDPITFGKGTHLEIKGGSSRSSSSGGGGSGGGGEVPLVESGGDLVKPGGSLRLSCVASGFPFRSYGMNWVRQSPGGGLQWVAGILFDGSATAYADAVRGRFTISRDNAKNTLYLQMNSLRAEDTAVYYCASDDGSYIEAYNWFYYWGQGTLVTVSSASTTAPSVTSGQAGQ
# notes: as for B1
# B6: IL4 P3-1 B10 scFv (scFv)
# scFv: QSVLTQPTSVSAALGQRVTISCTGSNANIGSVYDVQWYQQLPGKSPKTIIYGNTHRPSGVPVRFSGSKSGSTATLTITGIQAEDEADYYCQSYDATLHYVFGSGTQLTVLGGGSSRSSSSGGGGSGGGGEVQLVESGGDLVKPGGSLRLSCVASGFTFSNYDMSWVRQAPGKGLQWVSTISYDGNNTYYSDAVKGRFTISRDNARNTLYLQMNSLRAEDTAVYYCAKEFDIPWDNFDYWGQGTLVTVSSASTTAPSVTSGQAGQ
# notes: as for B1
# B7: IL4 P3-1 C4 5LC scFv (scFv)
# scFv: QAVLNQPASVSGSLGQRVTISCSGSTNNIGVVGASWYQQFPGKAPKLLVYSDGDRPSGVPDRFSGSNSGYSDTLTITGLQAEDEADYYCQSFDTTLNAYVFGSGTQLTVLGGGSSRSSSSGGGGSGGGGEVPLVESGGDLVKPGGSLRISCVASGITFNNDDMGWVRQAPGKGLQWLAEISSSGTSTYYADAVKGRFTISRDNAKNTVYLQMNSLKAEDTGVYYCVGEDGYMALGFWGQGTLVTVSSASTTAPSVTSGQAGQ
# B8: IL4 P4-1 A10 scFv (scFv)
# scFv: QSVLNQLPSVSGSLGQKVTIRCSGNTDNIGMVGAAWYRQVPGEAPKLLLYSDGNRPSGVPDRFSGSDSGRSATLTITGLQPEDEADYYCQSLDPTVPGNYLFGSGTQLTILGGGSSRSSSSGGGGSGGGGEVQLVESGGDLVKPGGSLRLSCVASGFTFSDYDMTWVRQAPGKGLQWVADINNGGSSTTYADAVKGRFTISRDNAKNTLYLQMNSLRAEDTAMYYCAKEGDNTWLSFDSWGQGTLVTVSSESPSPPNLTSGQAGQ
# notes: as for B1
# B9: IL4 P4A-1 F10 scFv (scFv)
# scFv: QTVVTQEPSLSVSPGGTVTLTCGLSSGSVSTGNYPGWYQQTQGRAPRSIIYDTNSRPSGVPDRFSGSISGNKAVLTITGAQPEDEADYYCSLYTGIAYTDVVFGGGTHLTVLGGGSSRSSSSGGGGSGGGGEVQLVQSGGDLVKPAGSLRLSCVASGFTFNSYAMSWVRQAPGKGLQWVAGINSGGSTTTYADAVKGRFTISRDNAKNTLYLQMNSLRAEDTAVYYCAKDQNSYYPSDTFEYWGQGTLVTVSSESPSPPNLTSGQAGQ
# notes: as for B1
# B10: IL4 P4-1 G3 scFv (scFv)
# scFv: QSVLNQLPSLSMNMGETATFTCEGDNIGHKYVNWYQQKPGQAPVLTIYEDNKRPSGIPERFSGSNSGNTATLTISGARAEDEADYYCESEVSTGIVFGGGTHLTVLGGGSSRSSSSGGGGSGGGGEVQLVESGGDLVKPGGSLRLSCVASGFTFSSYDMDWVRQAPGKGLEWLSEISTNGDRTHYADAVKGRFAISRDNAKNTVYLQMNSLRAEDTAIYYCVRDGYEYLAFDYWGQGTLVTVSSASTTAPSVTSGQAGQ
# notes: as for B1
# B11: IL4 P3-1 A6 scFv (scFv)
# scFv: QPVLTQPPSVSAALGQRVTISCNTNIGSPYDVQWYQQLPGKSPKTIIYGNSNRPSGVPVRFSGSKSGSTATLTIAGIQAEDEADYYCQSYDDNVDGYVFGSGTQLTVLGGGSSRSSSSGGGGSGGGGEVPLVESGGDLVKPGGSLRLSCVASGFTFHNYDLSWIRQLPGGGLQWVADIDKSGLTFYADAVKGRFTISRDNAKNTLYLQMNSLRAEDTAVYYCATWPLGSWYTETFEYWGQGTLVTVSSASTTAPSVTSGQAGQ
# notes: as for B1
# B12: IL4 P4A-1 A4 scFv (scFv)
# scFv: SYVLSQPPSVSVTPSETAHITCGGNNIGSKYVQWIRQSAGQAPVTIIYGNTNRPTGIPERFSGANSGNTATLTISGVLAEDEADYYCQVGDTDTTVFGGGTHLTVLGGGSSRSSSSGGGGSGGGGEVQLVESGGDLVKPGGSLRLSCVASGFNFSRYSMSWVRQAPEKGLQLVAAVNSGGSRTWYADAVQGRFTVSRDNAKNTLFLEMSSLKLEDTAMYYCAKDLWSTTIAEYDYWGQGTLVTVSSASTTAPSVTSGQAGQ
# notes: as for B1
# B13: IL13 P4A-2 E11 scFv (scFv)
# scFv: QSALTQTASVSGSLGQRVTISCTGATRNVGTVGVTWYQQVPGKAPKLLLFSNGDRPSWVPDRFSGSTSGYSATLIINGVQAEDEAMYHCQSFDTMPDAHYMFGSGTQLTVLGGGSSRSSSSGGGGSGGGGELTLQESGPGLVKPSQTLSLTCVVSGASVTSTNYWNWIRQRPGRGLEWMGYWTGSTKYNPAFQGRISITADTAKNQFSLQLSSMTTEDTAVYYCARSSTWINGFDYWGQGTLVTVSSESPSPPNLTSGQAGQ
# notes: as for B1
# B14: IL13 P2-1 H5 scFv (scFv)
# scFv: QSVLNQPPSVSAALGQRVTISCTGTNTNIGSGYSVQWYQQLPGESPKPIIYGSSNRPSGVPARFSGSKSGSTGTLTITGIQAEDEADYHCQSYDDSLDGHAVFGGGTQLTVLGGGSSRSSSSGGGGSGGGGEVQLVQSGGDLVKPGGSLRLSCVASGFTFSGYDMSWVRQSPGKGLQWVATVWSDGNTIYYADAVKGRFTISRDNAKNTVYLQMNSLRAEDTAMYYCAKSPYCTDDYCPWGDYLDLWGQGTLVTVSSASTTAPSVTSGQAGQ
# notes: as for B1
# B15: IL13 P3-05 scFv (scFv)
# scFv: SYVLTQPPSVTVPLRQTARISCGGDNIRSKNVHWYQQKPGQAPVLIIYNDSNRPTGIPERFSGSNSGNMATLTIRGALAEDEADYYCQVWANDGYVFGSGTQLTVLGGGSSRSSSSGGGGSGGGGEVQLVESGGDSVRPGGSLRLSCVASGFTFSRYNMGWVRQAPGKGLQWVAWIYDGGSRTSYADAVKGRFTISRDNAKDTLYLQMDDLRVDDTAVYYCARDPSSWGSLFDYWGQGTLVTVSSASTTAPSVTSGQAGQ
# notes: as for B1
# Target: T1, Canine IL-4 with C-terminal Avi-HIS tag
# Assay: BLI (OCTET HTX); biotin-cIL-4 on SA biosensors, scFv in solution; 1:1 model
# Protocol: (§1) The in vitro binding of anti-canine IL-4 scFv and IL-13 scFv to canine IL-4 and canine IL-13, respectively, was determined by OCTET HTX using SA biosensors and Data Acquisition 12.0 software. First, biotin-labeled antigen (cIL-4 or cIL-13) was loaded onto the pre-rehydrated SA biosensors for 60 seconds (60s) at a concentration of 5 μg/mL. Second, the biosensors were placed into the OCTET Kinetics Buffer (PBS+0.02% Tween20, 0.1% BSA) for the blocking phase for 120s. Third, for the association phase, cIL-4 or cIL-13 antigen loaded biosensors were placed into 2-fold serial dilutions from 500 nM down to 7.8 nM of anti-cIL-4 or anti-cIL-13 scFvs, respectively, in OCTET Kinetics Buffer for 60s. The last well was buffer alone and that sensor was used for reference sensor subtraction. Finally, the biosensors were placed into OCTET Kinetics Buffer for the dissociation phase for 300s. The analysis was performed using Data Analysis 12.0 software and curves were fitted using a 1:1 binding model.
Kd,koff,kon,Binder
10.3 nM,0.00173 s⁻¹,194000 M⁻¹ s⁻¹,B1
17.5 nM,0.00729 s⁻¹,391000 M⁻¹ s⁻¹,B2
4.5 nM,0.00108 s⁻¹,241000 M⁻¹ s⁻¹,B3
4.38 nM,0.00775 s⁻¹,1.52e+06 M⁻¹ s⁻¹,B4
8.5 nM,0.00117 s⁻¹,137000 M⁻¹ s⁻¹,B5
4.57 nM,0.00522 s⁻¹,1.14e+06 M⁻¹ s⁻¹,B6
4.13 nM,0.000547 s⁻¹,132000 M⁻¹ s⁻¹,B7
9.92 nM,0.011 s⁻¹,954000 M⁻¹ s⁻¹,B8
12.7 nM,0.00396 s⁻¹,311000 M⁻¹ s⁻¹,B9
3.94 nM,0.00247 s⁻¹,594000 M⁻¹ s⁻¹,B10
1.24 nM,0.000272 s⁻¹,219000 M⁻¹ s⁻¹,B11
52 nM,0.0373 s⁻¹,704000 M⁻¹ s⁻¹,B12

# Target: T2, Canine IL-13 with C-terminal Avi-HIS tag
# Assay: BLI (OCTET HTX); biotin-cIL-13 on SA biosensors, scFv in solution; 1:1 model
# Protocol: as §1
Kd,koff,kon,Binder
26.8 nM,0.00466 s⁻¹,174000 M⁻¹ s⁻¹,B13
9.09 nM,0.00291 s⁻¹,321000 M⁻¹ s⁻¹,B14
59.7 nM,0.00487 s⁻¹,176000 M⁻¹ s⁻¹,B15
